{
  "source": "patent US20140329761A1",
  "about": "“PREVENTION AND TREATMENT OF ACUTE INFLAMMATORY CONDITIONS” (The University of Queensland, priority 2011, published 2014)",
  "key": {"[1]": {"target": "T1, C3aR (Mus musculus, UniProt O09047)", "T1 construct": "endogenous in cells; host or cells: live wild-type C57BL/6 mice (in vivo; receptor on neutrophils and other bone-marrow-derived cells)", "T1 sequence (O09047 1-477)": "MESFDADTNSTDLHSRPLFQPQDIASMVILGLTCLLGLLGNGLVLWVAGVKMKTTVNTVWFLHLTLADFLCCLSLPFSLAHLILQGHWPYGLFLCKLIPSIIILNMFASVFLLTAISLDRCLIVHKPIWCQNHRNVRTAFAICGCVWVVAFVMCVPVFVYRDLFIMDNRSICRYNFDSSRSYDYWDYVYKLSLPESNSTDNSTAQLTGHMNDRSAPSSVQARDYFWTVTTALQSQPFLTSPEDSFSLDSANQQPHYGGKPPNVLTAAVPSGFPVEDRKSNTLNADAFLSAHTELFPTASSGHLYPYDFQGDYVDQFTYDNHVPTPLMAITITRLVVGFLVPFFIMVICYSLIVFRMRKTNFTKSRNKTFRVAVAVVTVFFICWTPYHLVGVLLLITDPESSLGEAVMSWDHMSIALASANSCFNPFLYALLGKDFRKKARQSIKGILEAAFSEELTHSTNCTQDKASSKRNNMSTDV", "assay": "Mouse spinal cord injury (SCI): circulating white blood cell populations and total WBC counts", "type": "in vivo", "settings": "SCI mice, 4 doses of 1 mg/kg s.c. every 6 hours, 24 hours post-injury", "experimental": "Experimental mice were anaesthetized using Zoletil (50 mg/kg) and xylazine (10 mg/kg). Next, a dorsal laminectomy was performed on the 9th thoracic vertebra to expose the underlying spinal cord. Mice were then subjected to a force-controlled, moderate-severe (70 kdyne) contusion injury of the spinal cord using the Infinite Horizon impactor device (Ghasemlou et al., 2005). Post-operatively, mice were given antibiotics for 5 days (Gentamycin; 1 mg/kg) as well as a single dose of Hartmann's solution (1 ml) to prevent dehydration and to compensate for loss of bodily fluids. Bladders of spinal cord-injured mice were voided manually twice daily. […]\nBlood samples were collected from experimental animals either via retro-orbital eye bleeds or heart punctures at the time of sacrifice. […] Next, the number of white blood cells per set sample volume was determined using the Countess automated cell counter (Invitrogen) as per manufacturer's instructions. […]\nThese experiments were performed to test whether C3aR can be used as a therapeutic target to improve the outcome from neurotraumatic events (neuronal death and axonal degeneration at sites of SCI are inevitably linked to neuroinflammation). […] The effect of EP67 treatment on circulating white blood cell populations after SCI relative to saline-treated controls was assessed via flow cytometry and total WBC counts as detailed above."}, "[2]": {"target": "T1, C3aR", "assay": "Mouse intestinal I/R injury: alkaline phosphatase (ALP) measurement", "type": "in vivo", "settings": "WT mice, I/R induced intestinal injury, 0.01 mg/kg i.v. pre-treatment, compared with vehicle pre-treated WT mice", "experimental": "(§1) Male C57BL/6 or C3aR knockout mice were fasted for around 12 hours before experimentation. Mice were anesthetized with 2% isoflurane and oxygen at 2 L/minute throughout the experiment. […] An immediate check of complete shut-off of the blood supply to the small intestine was confirmed visually (ischemia). The abdomen was then covered with moist gauze. After thirty minutes of the ischemia episode, the ligature was removed and restoration of blood supply to the intestine was confirmed visually (reperfusion). The midline laparotomy incision was then closed. Mice were administrated with saline (100 μL) intraperitoneally every hour to compensate for fluid loss. The same procedure was performed on sham-operated mice including a loop of ligature around their arteries; however the arteries were not occluded. After two and half hours of the reperfusion episode, mice were sacrificed, and tissues and blood were harvested. Their small intestines (0.5-1 cm pieces) were snap-frozen in liquid nitrogen and stored at −80° C. for later assays. […]\nIntestinal ALP concentrations were measured according to the manufacturer's instructions (ALP reagents; Thermo Scientific, USA). […] The absorbance at 405 was immediately measured in a kinetic manner for 10 minutes at 37° C. The results were calculated as follows: Activity in U/L=ΔAbs/min×Factor."}, "[3]": {"target": "T1, C3aR", "assay": "Mouse intestinal I/R injury: myeloperoxidase (MPO) activity of small intestine", "type": "in vivo", "settings": "WT mice, 0.01 mg/kg i.v. pre-treatment, compared with vehicle pre-treated WT mice", "experimental": "(§2) Male C57BL/6 or C3aR knockout mice were fasted for around 12 hours before experimentation. Mice were anesthetized with 2% isoflurane and oxygen at 2 L/minute throughout the experiment. […] An immediate check of complete shut-off of the blood supply to the small intestine was confirmed visually (ischemia). The abdomen was then covered with moist gauze. After thirty minutes of the ischemia episode, the ligature was removed and restoration of blood supply to the intestine was confirmed visually (reperfusion). The midline laparotomy incision was then closed. Mice were administrated with saline (100 μL) intraperitoneally every hour to compensate for fluid loss. The same procedure was performed on sham-operated mice including a loop of ligature around their arteries; however the arteries were not occluded. After two and half hours of the reperfusion episode, mice were sacrificed, and tissues and blood were harvested. Their small intestines (0.5-1 cm pieces) were snap-frozen in liquid nitrogen and stored at −80° C. for later assays. […] The blood was centrifuge at 14,000 rpm for 15 min at 4° C., and the resulting plasma stored at −80° C. […]\nSnap-frozen ileum (1 cm), excised at sacrifice, was briefly cleaned with ice-cold PBS and weighed. […] MPO activity was assayed spectrophotometrically at the absorbance 460 nm. […] The absorbance was measured using a Rainbow 96-well plate reader after 20 minutes."}, "[4]": {"target": "T1, C3aR", "assay": "Mouse intestinal I/R injury: plasma cytokines (Cytometric Bead Array)", "type": "in vivo", "settings": "WT ischemia/reperfusion mice, 2.5 hours after ischemia", "experimental": "as §2\nCytokines were measured using a Cytometric Bead Array from Becton Dickinson (flow cytometry that allows for the quantification of multiple cytokines simultaneously), using plasma isolated from mice at termination."}, "[5]": {"target": "T2, C3aR (Homo sapiens, UniProt Q16581)", "T2 sequence (Q16581 1-482)": "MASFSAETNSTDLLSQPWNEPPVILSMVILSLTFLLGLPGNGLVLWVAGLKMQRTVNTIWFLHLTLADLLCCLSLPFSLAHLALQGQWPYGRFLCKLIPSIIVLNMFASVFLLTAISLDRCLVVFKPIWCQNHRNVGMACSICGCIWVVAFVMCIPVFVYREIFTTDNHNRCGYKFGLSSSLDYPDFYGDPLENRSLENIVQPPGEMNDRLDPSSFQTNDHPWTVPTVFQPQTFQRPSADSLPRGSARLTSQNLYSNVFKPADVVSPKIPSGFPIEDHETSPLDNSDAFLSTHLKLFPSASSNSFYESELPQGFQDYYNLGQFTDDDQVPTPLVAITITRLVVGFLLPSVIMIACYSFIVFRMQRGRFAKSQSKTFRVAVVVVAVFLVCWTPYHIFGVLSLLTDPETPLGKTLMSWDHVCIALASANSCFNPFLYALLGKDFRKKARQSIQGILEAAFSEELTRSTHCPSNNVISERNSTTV", "settings": "cited from earlier work"}, "[6]": {"target": "T1, C3aR", "assay": "Mouse intestinal I/R injury: histopathology of small intestine", "type": "in vivo", "settings": "WT mice, 0.01 mg/kg i.v. pre-treatment, compared with vehicle pre-treated WT mice; scale 0-5", "experimental": "as §1\nAt sacrifice, a section of ileum (0.5 cm) was removed and fixed in 4% paraformaldehyde in phosphate buffered saline (PBS) for at least 72 hours. […] Histological assessment was carried out in a blinded fashion using light microscopy at 40× magnification, and scored for severity on a scale of 0-5. […]"}, "[7]": {"target": "T1, C3aR", "assay": "Mouse intestinal I/R injury: circulating neutrophils (white blood cell differentials)", "type": "in vivo, mice", "settings": "WT mice, I/R induced intestinal injury, 0.01 mg/kg i.v. 10 minutes prior to ischemia, compared with vehicle pre-treated WT mice", "experimental": "as §1\n(§3) To determine white blood cell populations, cell differentials were employed using blood smears and The Kwik-Diff Staining System (Thermo Shandon). […] Samples were counted in triplicate, with a total 100 white blood cells per slide counted, and the number of neutrophils expressed as a percentage of total white blood cells."}, "[8]": {"system": "C3aR", "assay": "Mouse intestinal I/R injury: circulating neutrophils (white blood cell differentials)", "type": "in vivo, mice", "settings": "C3aR-/- mice, gut ischemia/reperfusion, 0.01 mg/kg i.v. 10 minutes prior to ischemia", "experimental": "as §1, §3"}},
  "note": "Where no end group is shown, it is not given here. [ ]: non-standard residue; d: D form. Cha = N[C@@H](CC1CCCCC1)C(=O)O",
  "data": [
    {"substance": "YSFKDMP(MeL)aR [EP67]", "values": [
      {"measurement": "reduction in the blood granulocyte number", "setting": "[1]; compared to vehicle-treated control mice with SCI", "result": 30, "unit": "%"},
      {"measurement": "total WBC count", "setting": "[1]; relative to vehicle-treated controls, p=0.07, data not shown", "result": "trend towards a decrease"}
    ]},
    {"substance": "WWGKKYRASKLGLAR (A synthetic EP141)", "values": [
      {"measurement": "plasma ALP levels", "setting": "[2]", "result": "significantly (P<0.02) reduced"},
      {"measurement": "I/R induced MPO activity of the small intestine", "setting": "[3]", "result": "significantly (P<0.05) lower"},
      {"measurement": "IL-6 levels in plasma", "setting": "[4]", "result": "no significant change"},
      {"measurement": "C3aR agonist activity", "setting": "[5]; literature (Ember et al. 1991; Scully et al. 2010; Denonne et al. 2007)", "result": "highly potent and selective C3aR agonist"},
      {"measurement": "I/R induced intestinal injury (histopathological scores of the small intestine)", "setting": "[6]", "result": "significantly reduced"},
      {"measurement": "percentage of circulating neutrophils", "setting": "[7]", "result": "significantly (P<0.02) lower"},
      {"measurement": "effect on circulating neutrophils (neutrophil mobilization) in C3aR knockout mice", "setting": "[8]", "result": "inactive"}
    ]},
    {"substance": "FLTChaAR (FLT[Cha]AR)", "values": [
      {"measurement": "functional antagonism at C3aR", "setting": "[5]; literature (Scully et al. 2010), human C3aR", "result": "functional antagonist of both C3a and the short peptide agonist FWTLAR"}
    ]}
  ]
}
